Protein production data for six sequences are collected here from a protein production outcome set (Wang et al. 2014).

The data set in a line: label from the status in PepcDB records.

For the sequence “MKVVPEKNAVRILWGRERGTRAMGAQRLLQELVEDKTRWMKWEGKRVELPDSPRSTFLLAFSPDRTLLASTHVNHNIYITEVKTGKCVHSLIGHRRTPWCVTFHPTISGLIASGCLDGEVRIWDLHGGSESWFTDSNNAIASLAFHPTAQLLLIATANEIHFWDWSRREPFAVVKTASEMERVRLVRFDPLGHYLLTAIVNPSNQQGDDEPEIPIDGTELSHYRQRALLQSQPVRRTPLLHNFLHMLSSRSSGIQVGEQSTVQDSATPSPPPPPPQPSTERPRTSAYIRLRQRVSYPTTVECCQHPGILCLCSRCAGTRVPSLLPHQDSVPPASARATTPSFSFVQTEPFHPPEQASSTQQDQGLLNRPSAFSTVQSSTAGNTLRNLSLGPTRRSLGGPLSSHPSRYHRELAPGLTGSEWTRTVLTLNSRSEVESMPPPRTSASSVSLLSVLRQQEGGSQASVYTSATEGRGFPSSGLATESDGGNGSSQNNSGNIRHELQCDLRRFFLEYDRLQELDQSLSGETPQTQQAQEMLNNNIESERPGPSHQPTPHSSENNSNLSRGHLNRCRACHNLLTFNNDTLRWERTTPNYSSGEASSSWHVSTTFEGMPPSGNQLPPLERTEGQMPNSSRLELSSSASSQEERTVGVAFNQETGHWERIYTQSSRSGTVSQEALHQDMPEESSEEDSLRRRLLESSLISLSRYDGAGSREHPIYPDPARLSPAAYYAQRMIQYLSRRDSIRQRSMRYQQNRLRSSTSSSSSDNQGPSVEGTDLEFEDFEDNGDRSRHRAPRNARMSAPSLGRFVPRRFLLPEYLPYAGIFHERGQPGLATHSSVNRVLAGAVIGDGQSAVASNIANTTYRLQWWDFTKFDLPEISNASVNVLVQNCKIYNDASCDISADGQLLAAFIPSSQRGFPDEGILAVYSLAPHNLGEMLYTKRFGKG”, the protein production result is listed as “failed”.

For “MKWVTYRSDHGERTGVLSGDAIYAMPPDVSLLDLVGRGADGLRTAGERAVRSPAAVVALDEVTLAAPIPRPPSIRDSLCFLDHMRNCQEAMGGGRVLMDTWYRIPAFYFACPSTVLGPYDDAPTAPGSAWQDFELEIAAVIGTSGKDLTVEQAERSIIGYTIFNDWSARDLQMLEGQLRIGQAKGKDSGITLGPYLVTPDELEPYCRGGKLSLRVIALVNGTVIGSGSTAQMDWSFGEVIAYASRGVTLTPGDVFGSGTVPTCTLVEHLRPPESFPGWLHDGDVVTLQVEGLGETRQTVRTSGTPFPLALRPNPDAEPDRRGVNPAPTRVPFTRGLHEVADRVWAWTLPDGGYGFSNAGLVAGDGASLLVDTLFDLALTREMLAAMKPVTERAPITDALITHSNGDHTHGTQLLDRSVRIIAAKGTSEEIEHGPAPEMLARIQTADLGPVATRYLRDRFGHFDFSGIKLRNADLTFDRDLAIELGGRRVDLLNLGPAHTTADSVVHVADAGVLFAGDLLFIGCTPIVWAGPIANWVAACDAMIALDAPTVVPGHGPVTGPDGIRAVRGYLAHIAEQAEAAYRKGLSLPEAVETIDLGEYASWLDSERVVVNVYQRYRELDPDTPRQDLLALLVMQAEWAARHCT”, the protein production entry is reported as “failed”.

Regarding “MKWYEQPLHTLSHAQWEALCDGCGQCCLNQLLDEEDNLYSTDVACRLLDTKTASCSDYAHRSERVPACVTLTPDNLDEVYFMPASCAYRLRAEGQPLPQWHPLRHEGSKEPMKKAGYHVAGHCVSEAKFKGDLEDRIVTWPLS”, the protein production result is “failed”.

Take “MKYCTLDDLILSFGQDEIYRLIATDQEAEKALDDAQAEIDMYLSDRYALPVKSVPKSLNRIACDIAHYYLYNSVDEDSTVYLRYKHRIKQLSDVAAGKLSLGLYDKSDDATTDNQVVFIKSSKKVFAR”: the protein production result is reported as “not failed”.

With “MKYIEPHFISFTQHTLKSQLIPKSFHGMKILQFSDLHLGYYFSLQHLSQVVSKINAVNPDIVLFTGDLIDNYQTYTDTPFVASILKNIQAPFGKFAIYGNHDHGGYGTEYYEHIMRESGFELLLNSKKRIRLMDNSEISIFGLDDILLGKPKIEKTLQHARQNTYNIVLVHEPDIAPQISKYPINLQLSGHSHGGQVQIPFLGAIITPSLAKDYIEGFYTMQDLTLYVNRGLGRTRVPFRFMSKPEITIFTLQHSLEHHHHHH”, the protein production result is “failed”.

Regarding “MKYLAGIVTFNPNIERLDQNIRAIYPQVSHIYIVDNGSKNKEEISQLVADYNEEGHLTVDYLTENKGIAYALNCIGQFAVAQEFDWFLTLDQDSVVLGDLIDNYENYLHLPKVGMLSCLYQDMNRENLVMQEFDYKEIEECITSAALMKTSVFEETSGFAEEMFIDFVDSEMNYRLSEMGYKTYQVNFIGLLHEIGHSSRVKKFGHVFHVLNHSPFRKYYMIRNAIYIIKKYGKKKRYKYLVFMRNEFVRVLVAEEQKSKKIVAMIKGLKDGLLMKVDKYGKLEHHHHHH”, the protein production result is “not failed”.
